In publication PMC3056349 (Neuron, 2011) one finds Kd data, which are given here for one molecule.

In this test the target is PTPσ-CFP (protein tyrosine phosphatase receptor PTPσ expressed in COS cells) (UniProt Q13332 30-1948). The test is described as follows: cell-surface binding assay.
Chain of PTPσ-CFP (protein tyrosine phosphatase receptor PTPσ expressed in COS cells) (Q13332 30-1948): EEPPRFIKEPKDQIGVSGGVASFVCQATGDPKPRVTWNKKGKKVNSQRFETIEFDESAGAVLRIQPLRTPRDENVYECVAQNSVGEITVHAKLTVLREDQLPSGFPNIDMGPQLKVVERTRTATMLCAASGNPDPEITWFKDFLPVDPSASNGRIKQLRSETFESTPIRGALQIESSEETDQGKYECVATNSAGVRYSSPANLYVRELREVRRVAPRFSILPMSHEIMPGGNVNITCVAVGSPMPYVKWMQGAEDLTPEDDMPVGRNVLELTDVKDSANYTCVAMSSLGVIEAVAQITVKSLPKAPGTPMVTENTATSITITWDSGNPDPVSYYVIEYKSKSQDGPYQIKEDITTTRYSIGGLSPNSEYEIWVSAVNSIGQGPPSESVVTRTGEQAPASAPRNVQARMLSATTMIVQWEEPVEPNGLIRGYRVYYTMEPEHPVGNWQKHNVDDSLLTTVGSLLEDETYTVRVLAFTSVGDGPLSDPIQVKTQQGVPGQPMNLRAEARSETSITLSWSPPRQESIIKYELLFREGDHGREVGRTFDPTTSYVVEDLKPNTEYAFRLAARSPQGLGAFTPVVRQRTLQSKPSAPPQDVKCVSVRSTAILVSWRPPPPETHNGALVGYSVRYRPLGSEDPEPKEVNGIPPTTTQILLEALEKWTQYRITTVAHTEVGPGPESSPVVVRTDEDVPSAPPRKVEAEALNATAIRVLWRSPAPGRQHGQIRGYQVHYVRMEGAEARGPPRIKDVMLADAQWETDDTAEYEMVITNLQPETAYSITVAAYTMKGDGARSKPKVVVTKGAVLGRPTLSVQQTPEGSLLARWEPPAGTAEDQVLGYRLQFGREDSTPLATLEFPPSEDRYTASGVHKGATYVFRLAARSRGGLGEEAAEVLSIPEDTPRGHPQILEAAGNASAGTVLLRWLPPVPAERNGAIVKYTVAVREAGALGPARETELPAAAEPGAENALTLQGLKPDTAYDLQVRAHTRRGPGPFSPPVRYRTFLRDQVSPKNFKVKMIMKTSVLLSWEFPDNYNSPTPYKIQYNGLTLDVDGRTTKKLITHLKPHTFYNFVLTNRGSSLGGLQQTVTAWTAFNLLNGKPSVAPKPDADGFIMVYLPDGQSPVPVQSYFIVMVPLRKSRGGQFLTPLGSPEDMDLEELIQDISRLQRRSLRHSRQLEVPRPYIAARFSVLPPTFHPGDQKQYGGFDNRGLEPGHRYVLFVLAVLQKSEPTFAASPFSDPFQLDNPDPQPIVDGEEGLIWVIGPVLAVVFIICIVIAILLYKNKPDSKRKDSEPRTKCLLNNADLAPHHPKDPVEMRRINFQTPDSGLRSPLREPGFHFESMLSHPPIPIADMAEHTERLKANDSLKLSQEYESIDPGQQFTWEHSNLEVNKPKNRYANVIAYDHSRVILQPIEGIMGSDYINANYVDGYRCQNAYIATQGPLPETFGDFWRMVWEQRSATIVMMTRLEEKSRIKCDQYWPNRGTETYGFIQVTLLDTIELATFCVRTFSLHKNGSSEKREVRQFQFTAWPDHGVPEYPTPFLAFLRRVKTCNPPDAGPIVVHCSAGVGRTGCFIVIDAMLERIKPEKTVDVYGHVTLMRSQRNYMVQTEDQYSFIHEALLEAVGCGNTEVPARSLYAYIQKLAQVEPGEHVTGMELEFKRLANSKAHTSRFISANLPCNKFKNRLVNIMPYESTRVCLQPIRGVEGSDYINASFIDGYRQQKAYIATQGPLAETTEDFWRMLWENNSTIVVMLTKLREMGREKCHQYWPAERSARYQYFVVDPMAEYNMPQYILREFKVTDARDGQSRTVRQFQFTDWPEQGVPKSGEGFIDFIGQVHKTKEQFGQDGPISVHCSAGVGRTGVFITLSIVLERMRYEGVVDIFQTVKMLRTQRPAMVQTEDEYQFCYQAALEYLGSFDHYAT

B1: TrkC-Fc (soluble purified TrkC ectodomain fused to human immunoglobulin Fc region) (Fc fusion, rat, UniProt Q03351 32-429, looked up)
chain: CPANCVCSKTEINCRRPDDGNLFPLLEGQDSGNSNGNASINITDISRNITSIHIENWRGLHTLNAVDMELYTGLQKLTIKNSGLRNIQPRAFAKNPHLRYINLSSNRLTTLSWQLFQTLSLRELRLEQNFFNCSCDIRWMQLWQEQGEARLDSQSLYCISADGSQLPLFRMNISQCDLPEISVSHVNLTVREGDNAVITCNGSGSPLPDVDWIVTGLQSINTHQTNLNWTNVHAINLTLVNVTSEDNGFTLTCIAENVVGMSNASVALTVYYPPRVVSLVEPEVRLEHCIEFVVRGNPTPTLHWLYNGQPLRESKIIHMDYYQEGEVSEGCLLFNKPTHYNNGNYTLIAKNALGTANQTINGHFLKEPFPESTDFFDFESDASPTPPITVTHKPEEDT
Turning to B1, the affinity, expressed as Kd, was 9.3 nM.

The term Kd denotes the equilibrium constant for the complex coming apart. High values mean lower affinity, low ones higher affinity.
